Legend:
XtrLin28b CSD [1] = target: T1, XtrLin28b CSD (Xenopus tropicalis, UniProt B4F6I0 27-114); test: Trp fluorescence titration
T1 sequence: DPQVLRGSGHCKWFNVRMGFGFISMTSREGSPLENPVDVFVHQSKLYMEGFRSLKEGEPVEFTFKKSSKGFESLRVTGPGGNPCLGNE

XtrLin28b ZKD = target: T2, XtrLin28b ZKD (Xenopus tropicalis, UniProt B4F6I0 125-175); test: ITC
T2 sequence: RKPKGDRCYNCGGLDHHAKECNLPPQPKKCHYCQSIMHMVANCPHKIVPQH

XtrLin28b CSD [2] = target: T1, XtrLin28b CSD; test: ITC

Binder | Kd (XtrLin28b CSD [1]) [nM] | other results
TTTTTCT (ssDNA) [dC6] | 87 ± 14 | –
UUUUUUU (ssRNA) [rU7] | – | binding result (XtrLin28b ZKD): no binding; Kd (XtrLin28b CSD [2]): 530 ± 65 nM
TATTTTT (ssDNA) [dA2] | 311 ± 24 | –
GTTTTTT (ssDNA) [dG1] | 12 ± 1 | –
AAGAAGAA (ssRNA) [rZ4] | – | Kd (XtrLin28b ZKD): 600 ± 170 nM
TTTCTTT (ssDNA) [dC4] | 73 ± 6 | –
TTTTGTT (ssDNA) [dG5] | 45 ± 4 | –
TTTATTT (ssDNA) [dA4] | 124 ± 12 | –
TTTTCTT (ssDNA) [dC5] | 154 ± 26 | –
AAAGAAAA (ssRNA) [rZ7] | – | Kd (XtrLin28b ZKD): 6800 ± 2100 nM
AAAGAGAA (ssRNA) [rZ3] | – | Kd (XtrLin28b ZKD): 200 ± 30 nM
TTATTTT (ssDNA) [dA3] | 137 ± 10 | –
TTTTTTT (ssDNA) [dT7] | 59 ± 5 | –
TTTTTTTTT (ssDNA) [dT9] | 44 ± 3 | –
GACAAAC (ssRNA) [rlet-7f3] | – | Kd (XtrLin28b CSD [2]): 1360 ± 600 nM
TTTTTGT (ssDNA) [dG6] | 81 ± 10 | –
GUCUUUU (ssRNA) [rG1b] | – | Kd (XtrLin28b CSD [2]): 27 ± 3 nM
AAAAAAA (ssDNA) [dA7 (heptaadenosine)] | – | binding result (XtrLin28b CSD [1]): no binding
TGTTTTT (ssDNA) [dG2] | 39 ± 4 | –
TTTTTTG (ssDNA) [dG7 (position 7)] | 80 ± 10 | –
CTTTTTT (ssDNA) [dC1] | 45 ± 4 | –
GUUUUUU (ssRNA) [rG1] | – | Kd (XtrLin28b CSD [2]): 35 ± 2 nM
TTTTTTC (ssDNA) [dC7] | 59 ± 4 | –

Binder | Kd (XtrLin28b CSD [1]) [nM] | other results
GUCAUAC (ssRNA) [rlet-7f1] | – | Kd (XtrLin28b CSD [2]): 13 ± 2 nM
TTTTTAT (ssDNA) [dA6] | 147 ± 15 | –
GGUCACACC (ssRNA) [rlet-7f6] | – | Kd (XtrLin28b CSD [2]): 21 ± 4 nM
TCTTTTT (ssDNA) [dC2] | 137 ± 22 | –
TTTTT (ssDNA) [dT5] | 680 ± 40 | –
GGGGGGG (ssDNA) [dG7 (heptaguanosine)] | – | binding result (XtrLin28b CSD [1]): no binding
TTTGTTT (ssDNA) [dG4] | 119 ± 16 | –
TTCTTTT (ssDNA) [dC3] | 71 ± 3 | –
GAAAAAA (ssRNA) [rGA6] | – | binding result (XtrLin28b CSD [2]): no binding
AAAAAAAA (ssRNA) [rA8] | – | binding result (XtrLin28b ZKD): no binding
TTTTTTTT (ssDNA) [dT8] | 32 ± 1 | –
GUCACAC (ssRNA) [rlet-7f (rlet-7f0)] | – | Kd (XtrLin28b CSD [2]): 46 ± 3 nM
ATTTTTT (ssDNA) [dA1] | 84 ± 5 | –
TTGTTTT (ssDNA) [dG3] | 139 ± 8 | –
GUCAAAC (ssRNA) [rlet-7f2] | – | Kd (XtrLin28b CSD [2]): 54 ± 9 nM
TTTTTTA (ssDNA) [dA7 (position 7)] | 113 ± 15 | –
GGUCACAC (ssRNA) [rlet-7f4] | – | Kd (XtrLin28b CSD [2]): 66 ± 9 nM
AAGGAAAA (ssRNA) [rZ6] | – | binding result (XtrLin28b ZKD): no binding
AAGGGGAA (ssRNA) [rZ8] | – | binding result (XtrLin28b ZKD): no binding
TTTTATT (ssDNA) [dA5] | 176 ± 8 | –
AAGGUGAA (ssRNA) [rZ2] | – | Kd (XtrLin28b ZKD): 32 ± 2 nM
TTTTTT (ssDNA) [dT6] | 169 ± 30 | –

Source: PMC3424542
